Reference: PMC3206844

Experiments:
[1] = molecular target: Visinin-like Protein 1 (VILIP-1), unmyristoylated (human) (UniProt P62760); experiment: small-angle X-ray scattering (SAXS); 12 mg/mL (542 uM) VILIP-1, 100 mM NaCl, 5 mM CaCl2, 2.5 mM DTT, 20 mM HEPES pH 7.5, 20 °C; mass from forward scattering, ab initio shape
[2] = molecular target: Visinin-like Protein 1 (VILIP-1), unmyristoylated (human) (UniProt P62760); experiment: SEC; Sephadex 200 column, 100 mM NaCl, 20 mM HEPES pH 7.5, 0.5 mL/min; samples with 0.1 mM EDTA or 5 mM CaCl2, non-reduced or reduced with 2.5 mM DTT; monomer and dimer peaks

stoichiometry N [1]: 2
stoichiometry N [2]: 2
Substance: Visinin-like Protein 1 (VILIP-1), unmyristoylated (from UniProt P62760 1-191) (natural protein)
